Reference: patent publication US20200048328A1 (Bristol-Myers Squibb, published 2020)
One block for each binder: values may come before it.

Tests used:
mouse serum albumin [1] = biological target: T1, mouse serum albumin (mouse, UniProt P07724 25-608); assay: SPR, albumin immobilized, Adnectin 250 nM
T1 construct: also called MSA; MuSA

human serum albumin [2] = biological target: T2, human serum albumin (human, UniProt P02768 25-609); assay: SPR, albumin immobilized, Adnectin 250 nM
T2 construct: immobilized on chips or coated on plates elsewhere; also called HSA; HuSA

rhesus serum albumin [3] = biological target: T3, rhesus serum albumin (rhesus, UniProt Q28522 17-600); assay: SPR, albumin immobilized, Adnectin 250 nM
T3 construct: also called RhSA; Rh-SA

rat serum albumin [4] = biological target: T4, rat serum albumin (rat, UniProt P02770 25-608); assay: SPR, albumin immobilized, Adnectin 250 nM
T4 construct: also called Rat SA; RSA

mouse serum albumin [5] = biological target: T1, mouse serum albumin; assay: SPR, albumin immobilized
cynomolgus serum albumin = biological target: T5, cynomolgus serum albumin (cynomolgus, UniProt A2V9Z4 25-608); assay: SPR, albumin immobilized
T5 construct: also called cynoSA; CySA

human serum albumin [6] = biological target: T2, human serum albumin; assay: SPR, albumin immobilized
rhesus serum albumin [7] = biological target: T3, rhesus serum albumin; assay: SPR, albumin immobilized
rat serum albumin [8] = biological target: T4, rat serum albumin; assay: SPR, albumin immobilized
domain I of HSA = biological target: T6, domain I of HSA (human, UniProt P02768 25-221, limits assumed); assay: SPR on HSA domains
T6 construct: domain: I; also called HSA domain I

domain III of HSA = biological target: T7, domain III of HSA (human, UniProt P02768 405-609, limits assumed); assay: SPR on HSA domains
T7 construct: domain: III; also called HuSA domainIII

human serum albumin [9] = biological target: T2, human serum albumin; assay: hFcRn:HSA competition AlphaScreen, pH 5.5
mouse serum albumin [10] = biological target: T1, mouse serum albumin; assay: SPR, albumin immobilized, HBS-P pH 7.4
human serum albumin [11] = biological target: T2, human serum albumin; assay: SPR, albumin immobilized, HBS-P pH 7.4
rhesus serum albumin [12] = biological target: T3, rhesus serum albumin; assay: SPR, albumin immobilized, HBS-P pH 7.4
mouse serum albumin [13] = biological target: T1, mouse serum albumin; assay: SPR, albumin immobilized, acetate pH 5.5
human serum albumin [14] = biological target: T2, human serum albumin; assay: SPR, albumin immobilized, acetate pH 5.5
rhesus serum albumin [15] = biological target: T3, rhesus serum albumin; assay: SPR, albumin immobilized, acetate pH 5.5
mouse serum albumin [16] = biological target: T1, mouse serum albumin; assay: SPR, albumin immobilized; remark: listed apart in the source
human PCSK9 [17] = biological target: T8, human PCSK9 (human, UniProt Q8NBP7 31-692); assay: PCSK9:EGFA FRET 2, competition
T8 construct: also called hPCSK9; huPCSK9

human PCSK9 [18] = biological target: T8, human PCSK9; assay: PCSK9:EGFA FRET 1, competition
mouse serum albumin [19] = biological target: T1, mouse serum albumin; assay: direct binding ELISA, albumin coated
human serum albumin [20] = biological target: T2, human serum albumin; assay: direct binding ELISA, albumin coated
rhesus serum albumin [21] = biological target: T3, rhesus serum albumin; assay: direct binding ELISA, albumin coated
mouse serum albumin [22] = biological target: T1, mouse serum albumin; assay: SPR, albumin immobilized, acetate pH 5.5; remark: listed apart in the source
human serum albumin [23] = biological target: T2, human serum albumin; assay: SPR, albumin immobilized, acetate pH 5.5; remark: listed apart in the source
rhesus serum albumin [24] = biological target: T3, rhesus serum albumin; assay: SPR, albumin immobilized, acetate pH 5.5; remark: listed apart in the source
mouse serum albumin [25] = biological target: T1, mouse serum albumin; assay: SPR, albumin immobilized, acetate pH 7.4
human serum albumin [26] = biological target: T2, human serum albumin; assay: SPR, albumin immobilized, acetate pH 7.4
rhesus serum albumin [27] = biological target: T3, rhesus serum albumin; assay: SPR, albumin immobilized, acetate pH 7.4
mouse serum albumin [28] = biological target: T1, mouse serum albumin; assay: SPR, albumin immobilized, HBSP pH 7.4
human serum albumin [29] = biological target: T2, human serum albumin; assay: SPR, albumin immobilized, HBSP pH 7.4
rhesus serum albumin [30] = biological target: T3, rhesus serum albumin; assay: SPR, albumin immobilized, HBSP pH 7.4
human PCSK9 [31] = biological target: T8, human PCSK9; assay: BLI (Octet), biotinylated PCSK9 on tips, no HSA
mouse serum albumin [32] = biological target: T1, mouse serum albumin; assay: SPR, albumin immobilized; remark: listed apart in the source
human serum albumin [33] = biological target: T2, human serum albumin; assay: SPR, albumin immobilized; remark: listed apart in the source
rhesus serum albumin [34] = biological target: T3, rhesus serum albumin; assay: SPR, albumin immobilized; remark: listed apart in the source
human PCSK9 [35] = biological target: T8, human PCSK9; assay: BLI (Octet), biotinylated PCSK9 on tips, tandem in complex with excess HSA
human PCSK9 [36] = biological target: T8, human PCSK9; assay: PCSK9:LDLR FRET, competition

koff (mouse serum albumin [1]): 0.000504 s⁻¹
koff (human serum albumin [2]): 0.000251 s⁻¹
koff (rhesus serum albumin [3]): 0.000312 s⁻¹
koff (rat serum albumin [4]): 0.000825 s⁻¹
B1: 5963_F03.PS5-2 (designed binder)
chain: MGVSDVPRDLEVVAATPTSLLISWDAPCVTVRYYRITYGREVQKYSDLGPLYIYQEFTVPGSKSTATISGLKPGVDYTITVYAVTGSGESPASSKPISINYRTPHHHHHH

Kd (mouse serum albumin [5]): 43.3 nM
koff (mouse serum albumin [5]): 0.000723 s⁻¹
kon (mouse serum albumin [5]): 16700 M⁻¹ s⁻¹
Kd (cynomolgus serum albumin): 50.5 nM
koff (cynomolgus serum albumin): 0.000326 s⁻¹
kon (cynomolgus serum albumin): 6440 M⁻¹ s⁻¹
Kd (human serum albumin [6]): 57.2 nM
koff (human serum albumin [6]): 0.000272 s⁻¹
kon (human serum albumin [6]): 4790 M⁻¹ s⁻¹
Kd (rhesus serum albumin [7]): 53.8 nM
koff (rhesus serum albumin [7]): 0.000351 s⁻¹
kon (rhesus serum albumin [7]): 6520 M⁻¹ s⁻¹
Kd (rat serum albumin [8]): 200 nM
koff (rat serum albumin [8]): 0.00147 s⁻¹
kon (rat serum albumin [8]): 7350 M⁻¹ s⁻¹
B2: PCSK9-PKE2 tandem Adnectin w/o his tag 5190_E01 (designed binder)
chain: MGVSDVPRDLEVVAATPTSLLISWDAPAEGYGYYRITYGETGGNSPVQEFTVPVSKGTATISGLKPGVDYTITVYAVEFDFPGAGYYHRPISINYRTEPSTPPTPSPSTPPTPSPSGVSDVPRDLEVVAATPTSLLISWDAPAVTVRYYRITYGREVQKYSDLGPLYIYQEFTVPGSKSTATISGLKPGVDYTITVYAVTGSGESPASSKPISINYRTP
notes: also called ATI-1676; 4472_C06 tandem Adnectin without a 6X histidine tail

binding result (domain I of HSA): no binding
binding result (domain III of HSA): no binding
IC50 (human serum albumin [9]): 37 nM
Kd (mouse serum albumin [10]): 67.7 nM
koff (mouse serum albumin [10]): 0.00909 s⁻¹
kon (mouse serum albumin [10]): 134000 M⁻¹ s⁻¹
Kd (human serum albumin [11]): 5.58 nM
koff (human serum albumin [11]): 0.000368 s⁻¹
kon (human serum albumin [11]): 65900 M⁻¹ s⁻¹
Kd (rhesus serum albumin [12]): 6.98 nM
koff (rhesus serum albumin [12]): 0.000577 s⁻¹
kon (rhesus serum albumin [12]): 82700 M⁻¹ s⁻¹
Kd (mouse serum albumin [13]): ~192 nM
koff (mouse serum albumin [13]): 0.0146 s⁻¹
kon (mouse serum albumin [13]): 75900 M⁻¹ s⁻¹
Kd (human serum albumin [14]): 8.82 nM
koff (human serum albumin [14]): 0.000898 s⁻¹
kon (human serum albumin [14]): 102000 M⁻¹ s⁻¹
Kd (rhesus serum albumin [15]): 17.6 nM
koff (rhesus serum albumin [15]): 0.00105 s⁻¹
kon (rhesus serum albumin [15]): 59600 M⁻¹ s⁻¹
fold weaker affinity than for human or rhesus albumin (mouse serum albumin [16]): ~10 fold
B3: PKE2 Adnectin 2270_C01 (designed binder)
chain: MASTSGVPRDLEVVAATPTSLLISWDAPAVTVRYYRITYGWQVQMYSDWGPLYIYKEFTVPGSKSTATISGLKPGVDYTITVYAVTGSGESPASSKPISINYRTEGDKPSQHHHHHH
notes: 10Fn3 domain with modified CD loop; the entry includes the His6 tail

IC50 (human PCSK9 [17]): 5.88 nM
IC50 (human PCSK9 [18]): 7.88 nM
EC50 (mouse serum albumin [19]): 7.3 nM
EC50 (human serum albumin [20]): 55.4 nM
EC50 (rhesus serum albumin [21]): 35.2 nM
Kd (mouse serum albumin [22]): 137 nM
koff (mouse serum albumin [22]): 0.0015 s⁻¹
kon (mouse serum albumin [22]): 11000 M⁻¹ s⁻¹
Kd (human serum albumin [23]): 43.9 nM
koff (human serum albumin [23]): 0.000489 s⁻¹
kon (human serum albumin [23]): 11100 M⁻¹ s⁻¹
Kd (rhesus serum albumin [24]): 110 nM
koff (rhesus serum albumin [24]): 0.000818 s⁻¹
kon (rhesus serum albumin [24]): 7400 M⁻¹ s⁻¹
Kd (mouse serum albumin [25]): 35 nM
koff (mouse serum albumin [25]): 0.000407 s⁻¹
kon (mouse serum albumin [25]): 11600 M⁻¹ s⁻¹
Kd (human serum albumin [26]): 83.9 nM
koff (human serum albumin [26]): 0.000387 s⁻¹
kon (human serum albumin [26]): 4610 M⁻¹ s⁻¹
Kd (rhesus serum albumin [27]): 75.4 nM
koff (rhesus serum albumin [27]): 0.000405 s⁻¹
kon (rhesus serum albumin [27]): 5380 M⁻¹ s⁻¹
Kd (mouse serum albumin [28]): 26.3 nM
koff (mouse serum albumin [28]): 0.000359 s⁻¹
kon (mouse serum albumin [28]): 13700 M⁻¹ s⁻¹
Kd (human serum albumin [29]): 83.8 nM
koff (human serum albumin [29]): 0.000301 s⁻¹
kon (human serum albumin [29]): 3590 M⁻¹ s⁻¹
Kd (rhesus serum albumin [30]): 71.7 nM
koff (rhesus serum albumin [30]): 0.000346 s⁻¹
kon (rhesus serum albumin [30]): 4820 M⁻¹ s⁻¹
Kd (human PCSK9 [31]): 0.404 nM
koff (human PCSK9 [31]): 0.000118 s⁻¹
kon (human PCSK9 [31]): 289000 M⁻¹ s⁻¹
Kd (mouse serum albumin [32]): 25.5 nM
koff (mouse serum albumin [32]): 0.000344 s⁻¹
kon (mouse serum albumin [32]): 13500 M⁻¹ s⁻¹
Kd (human serum albumin [33]): 67.1 nM
koff (human serum albumin [33]): 0.000324 s⁻¹
kon (human serum albumin [33]): 4820 M⁻¹ s⁻¹
Kd (rhesus serum albumin [34]): 68.7 nM
koff (rhesus serum albumin [34]): 0.000367 s⁻¹
kon (rhesus serum albumin [34]): 5340 M⁻¹ s⁻¹
Kd (human PCSK9 [35]): 0.902 nM
koff (human PCSK9 [35]): 0.000148 s⁻¹
kon (human PCSK9 [35]): 161000 M⁻¹ s⁻¹
IC50 (human PCSK9 [36]): 2.5 nM
B4: PCSK9-PKE2 tandem 4472_F08 (designed binder)
PCSK9 domain: MGVSDVPRDLEVVAATPTSLLISWDAPAEGYGYYRITYGETGGNSPVQEFTVPVSKGTATISGLKPGVDYTITVYAVEFDFPGAGYYHRPISINYRTE
PKE2 domain: GVSDVPRDLEVVAATPTSLLISWDAPAVTVRYYRITYGREVQKYSDLGPLYIYQEFTVPGSKSTATISGLKPGVDYTITVYAVTGSGESPASSKPISINYRTEHHHHHH
modifications: The real molecule is ONE polypeptide: PCSK9 domain, undisclosed linker F, PKE2 domain. It is given here as two chains because the linker letters are unknown.
notes: not shown: The inter-domain linker
